For the experiment, the target named is T1, ARNO PB-domain (Homo sapiens, UniProt Q99418).
T1 construct: v) 379-400aa, polybasic (PB) domain; made in house; host or cells: E. coli BL21(DE3)
As to the kind of experiment: GST pull-down of in vitro translated a2N with ARNO PB-domain. Type of experiment: binding. To be noted: GST pull-down with GST- and His-tagged PB-domain construct. As for the experimental part: The purified recombinant GST-ARNO(wt) and GST-tagged ARNO domain constructs ([…]) were incubated with 10 μl of in vitro translated 6His-a2N recombinant protein at 4° C. for 2 hours in 500 μl of binding buffer (10 mM HEPES, 1 mM EDTA, 1 mM DTT, 100 mM NaCl, 10% glycerol, 0.1% NP-40) with gentle rotation. Then the interacting recombinant proteins were immobilized on glutathione beads by incubation with 50 μl of 50% glutathione Sepharose 4B slurry for 2 hours at 4° C. The beads were collected by centrifugation and washed 5 times with 500 μl ice-cold binding buffer. Interacting proteins were eluted by boiling in SDS-PAGE sample buffer for 10 min at 95° C., resolved by SDS-PAGE and analyzed by Western blotting using polyclonal anti-a2N antibodies. […]
To examine the ability of these well-defined and functionally distinct domains of ARNO to interact with a2N1-402, full-length ARNO(wt) and its four domains were cloned separately for bacterial expression of recombinant proteins (FIG. 3). […] Interacting proteins were detected by western blot analysis with a2-specific antibodies as described above.

Here are results for one molecule from US20140162285A1, “Methods of Modulating Vesicular Trafficking” (The General Hospital Corporation, priority 2009, published 2014).

T1 sequence (Q99418 379-400 limits assumed): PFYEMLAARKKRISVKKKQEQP

B1: a2N: recombinant N-terminal cytosolic tail, amino acid residues 1-402 of mouse V-ATPase a2-subunit (protein)
chain: MGSLFRSESMCLAQLFLQSGTAYECLSALGEKGLVQFRDLNQNVSSFQRKFVGEVKRCEELERILVYLVQEITRADIPLPEGEASPPAPPLKHVLEMQEQLQKLEVELREVTKNKEKLRKNLLELVEYTHMLRVTKTFLKRNVEFEPTYEEFPALENDSLLDYSCMQRLGAKLGFVSGLIQQGRVEAFERMLWRACKGYTIVTYAELDECLEDPETGEVIKWYVFLISFWGEQIGHKVKKICDCYHCHIYPYPNTAEERREIQEGLNTRIQDLYTVLHKTEDYLRQVLCKAAESVCSRVVQVRKMKAIYHMLNMCSFDVTNKCLIAEVWCPEVDLPGLRRALEEGSRESGATIPSFMNTIPTKETPPTLIRTNKFTEGFQNIVDAYGVGSYREVNPALFTII
modifications: left off: small tags and cut ends
notes: recombinant N-terminal cytosolic tail, amino acid residues 1-402 of mouse V-ATPase a2-subunit
As to B1, the “interaction of a2N with ARNO PB-domain” value is “no interaction”.
